# Several values for one entry are separate records, joined by “and”; a condition that tells them apart may be missing. Equal entries are not always repeated.
# T1: human CTLA4 expressed on cells (human, UniProt P16410 36-223)
# T1 sequence (looked up): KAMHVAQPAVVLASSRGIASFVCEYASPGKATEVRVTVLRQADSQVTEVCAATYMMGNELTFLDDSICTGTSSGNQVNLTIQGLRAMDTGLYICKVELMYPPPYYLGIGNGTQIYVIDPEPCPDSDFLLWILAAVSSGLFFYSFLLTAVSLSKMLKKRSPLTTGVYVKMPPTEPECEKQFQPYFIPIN
# T2: Recombinant human CTLA4-hisFc (human, UniProt P16410 36-161, limits assumed)
# T2 construct: Coated on the ELISA plate; the whole UniProt entry is named; also called recombinant human CLTA4-hisFc; its antigen; not shown: his tag and Fc
# T2 sequence (looked up): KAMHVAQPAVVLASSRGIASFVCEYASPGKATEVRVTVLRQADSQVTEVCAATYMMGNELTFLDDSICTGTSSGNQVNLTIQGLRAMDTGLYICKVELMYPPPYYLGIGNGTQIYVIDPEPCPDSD
# Target: T1, human CTLA4 expressed on cells
# Test: cell-based or functional assay
row,Binder,"ADCP reporter activity (luciferase), EC50 [nM]"
1,"TY24040 (antibody, human IgG1, kappa) heavy: not shown light: DIQLTQSPSSLSASVGDRVTITCRASQSVRGRFLAWYQQKPGKAPKLLIYDASNRATGIPSRFSGSGSGTDFTLTISSLQPEDFATYYCQQSSSWPPTFGQGTKVEIKRTVAAPSVFIFPPSDEQLKSGTASVVCLLNNFYPREAKVQWKVDNALQSGNSQESVTEQDSKDSTYSLSSTLTLSKADYEKHKVYACEVTHQGLSSPVTKSFNRGEC",2.04

# Target: T2, Recombinant human CTLA4-hisFc
# Test: ELISA, coated CTLA4-hisFc, after MMP-9 cleavage
# Procedure: Plates were blocked with PBS supplemented with 3% non-fat milk at 37° C. for 1 hour. After washing, 100 µL of 3-fold serial dilutions of antibodies were added to each well. After incubation at 37° C. for 1 hour, plates were washed four times, and 100 μL HRP conjugated anti-human IgG (Fab specific) (1:6000 dilution) was added to each well. Plates were incubated at 37° C. for 1 hour, washed four times, and then 50 μL TMB substrate solution was added to each well, and the plate was incubated at room temperature. Absorbance at 450 nm was measured after the reactions were stopped with 50 μL H2SO4 per well. The EC50 was evaluated by fitting the ELISA data using the sigmoidal (four-parameter logistic equation) model of GraphPad Prism 6 software. Experiments for some activatable antibodies were performed twice or more, leading to two or more calculated masking efficiencies being obtained for each of these activatable antibodies.
# The purified activatable antibodies were treated with the proteases which recognize the cleavage sequences, and were then tested to determine whether removal of the masking peptide restored their activity. […] The reactions were carried out at 37° C. for 24 hours. […] The masking efficiency was then measured by ELISA as described above.
row,Binder,EC50 [nM]
1,"TY24649-MMP9 (antibody, human IgG1, TY24649 after 24 h with MMP-9; Wild-type human IgG1 Fc; also called TY24649 treated with recombinant human MMP-9) heavy: not shown light: DIQLTQSPSSLSASVGDRVTITCRASQSVRGRFLAWYQQKPGKAPKLLIYDASNRATGIPSRFSGSGSGTDFTLTISSLQPEDFATYYCQQSSSWPPTFGQGTKVEIKRTVAAPSVFIFPPSDEQLKSGTASVVCLLNNFYPREAKVQWKVDNALQSGNSQESVTEQDSKDSTYSLSSTLTLSKADYEKHKVYACEVTHQGLSSPVTKSFNRGEC",0.286

# Target: T2, Recombinant human CTLA4-hisFc
# Test: ELISA, coated CTLA4-hisFc
# Procedure: Recombinant human CTLA4-hisFc was diluted to 1 μg/mL in PBS and coated on a Maxisorp plate at 4° C. overnight. Plates were blocked with PBS supplemented with 3% non-fat milk at 37° C. for 1 hour. After washing, 100 µL of 3-fold serial dilutions of antibodies were added to each well. After incubation at 37° C. for 1 hour, plates were washed four times, and 100 μL HRP conjugated anti-human IgG (Fab specific) (1:6000 dilution) was added to each well. Plates were incubated at 37° C. for 1 hour, washed four times, and then 50 μL TMB substrate solution was added to each well, and the plate was incubated at room temperature. Absorbance at 450 nm was measured after the reactions were stopped with 50 μL H2SO4 per well. The EC50 was evaluated by fitting the ELISA data using the sigmoidal (four-parameter logistic equation) model of GraphPad Prism 6 software. Experiments for some activatable antibodies were performed twice or more, leading to two or more calculated masking efficiencies being obtained for each of these activatable antibodies.
Binder,EC50,Masking efficiency (EC50 / EC50 of TY21580) [fold]
"TY24149 (antibody, human IgG1, kappa) heavy: not shown light: EVGSYPPCVGFYPYCKTSGRSAGGGGTPLGLAGSGGSDIQLTQSPSSLSASVGDRVTITCRASQSVRGRFLAWYQQKPGKAPKLLIYDASNRATGIPSRFSGSGSGTDFTLTISSLQPEDFATYYCQQSSSWPPTFGQGTKVEIKRTVAAPSVFIFPPSDEQLKSGTASVVCLLNNFYPREAKVQWKVDNALQSGNSQESVTEQDSKDSTYSLSSTLTLSKADYEKHKVYACEVTHQGLSSPVTKSFNRGEC",123 nM and 122 nM,356
"TY24155 (antibody, human IgG1, kappa) heavy: not shown light: EVGSYSSCKAPYPYCKGSGRSAGGGGTPLGLAGSGGSDIQLTQSPSSLSASVGDRVTITCRASQSVRGRFLAWYQQKPGKAPKLLIYDASNRATGIPSRFSGSGSGTDFTLTISSLQPEDFATYYCQQSSSWPPTFGQGTKVEIKRTVAAPSVFIFPPSDEQLKSGTASVVCLLNNFYPREAKVQWKVDNALQSGNSQESVTEQDSKDSTYSLSSTLTLSKADYEKHKVYACEVTHQGLSSPVTKSFNRGEC",438 nM (2×) and 210 nM (2×),
"TY24466 (antibody, human IgG1, kappa) heavy: not shown light: ETLCEPFATSVCRPSGGGPLGLAGGSDIQLTQSPSSLSASVGDRVTITCRASQSVRGRFLAWYQQKPGKAPKLLIYDASNRATGIPSRFSGSGSGTDFTLTISSLQPEDFATYYCQQSSSWPPTFGQGTKVEIKRTVAAPSVFIFPPSDEQLKSGTASVVCLLNNFYPREAKVQWKVDNALQSGNSQESVTEQDSKDSTYSLSSTLTLSKADYEKHKVYACEVTHQGLSSPVTKSFNRGEC",3.17 µM (2×) and 2.23 µM (2×),
"TY24460 (antibody, human IgG1, kappa) heavy: not shown light: EVGSYSSCKAPYPYCKGSGGGPLGLAGGSDIQLTQSPSSLSASVGDRVTITCRASQSVRGRFLAWYQQKPGKAPKLLIYDASNRATGIPSRFSGSGSGTDFTLTISSLQPEDFATYYCQQSSSWPPTFGQGTKVEIKRTVAAPSVFIFPPSDEQLKSGTASVVCLLNNFYPREAKVQWKVDNALQSGNSQESVTEQDSKDSTYSLSSTLTLSKADYEKHKVYACEVTHQGLSSPVTKSFNRGEC",339 nM,
"TY24459 (antibody, human IgG1, kappa) heavy: not shown light: EVGSYSSCKAPYPYCKGSGRGPLGLAGGSDIQLTQSPSSLSASVGDRVTITCRASQSVRGRFLAWYQQKPGKAPKLLIYDASNRATGIPSRFSGSGSGTDFTLTISSLQPEDFATYYCQQSSSWPPTFGQGTKVEIKRTVAAPSVFIFPPSDEQLKSGTASVVCLLNNFYPREAKVQWKVDNALQSGNSQESVTEQDSKDSTYSLSSTLTLSKADYEKHKVYACEVTHQGLSSPVTKSFNRGEC",209 nM,
"TY24465 (antibody, human IgG1, kappa) heavy: not shown light: EVGSYTLCEPFATSVCRPGGGPLGLAGGSDIQLTQSPSSLSASVGDRVTITCRASQSVRGRFLAWYQQKPGKAPKLLIYDASNRATGIPSRFSGSGSGTDFTLTISSLQPEDFATYYCQQSSSWPPTFGQGTKVEIKRTVAAPSVFIFPPSDEQLKSGTASVVCLLNNFYPREAKVQWKVDNALQSGNSQESVTEQDSKDSTYSLSSTLTLSKADYEKHKVYACEVTHQGLSSPVTKSFNRGEC",2.33 µM (2×) and 1.2 µM (2×),
"TY24461 (antibody, human IgG1, kappa) heavy: not shown light: EVGSYSSCKAPYPYCKGGGGPLGLAGGSDIQLTQSPSSLSASVGDRVTITCRASQSVRGRFLAWYQQKPGKAPKLLIYDASNRATGIPSRFSGSGSGTDFTLTISSLQPEDFATYYCQQSSSWPPTFGQGTKVEIKRTVAAPSVFIFPPSDEQLKSGTASVVCLLNNFYPREAKVQWKVDNALQSGNSQESVTEQDSKDSTYSLSSTLTLSKADYEKHKVYACEVTHQGLSSPVTKSFNRGEC",310 nM,
"TY24462 (antibody, human IgG1, kappa) heavy: not shown light: ESSCKAPYPYCKGSGGGPLGLAGGSDIQLTQSPSSLSASVGDRVTITCRASQSVRGRFLAWYQQKPGKAPKLLIYDASNRATGIPSRFSGSGSGTDFTLTISSLQPEDFATYYCQQSSSWPPTFGQGTKVEIKRTVAAPSVFIFPPSDEQLKSGTASVVCLLNNFYPREAKVQWKVDNALQSGNSQESVTEQDSKDSTYSLSSTLTLSKADYEKHKVYACEVTHQGLSSPVTKSFNRGEC",314 nM,
"TY24463 (antibody, human IgG1, kappa) heavy: not shown light: EVGSYTLCEPFATSVCRPSGRGPLGLAGGSDIQLTQSPSSLSASVGDRVTITCRASQSVRGRFLAWYQQKPGKAPKLLIYDASNRATGIPSRFSGSGSGTDFTLTISSLQPEDFATYYCQQSSSWPPTFGQGTKVEIKRTVAAPSVFIFPPSDEQLKSGTASVVCLLNNFYPREAKVQWKVDNALQSGNSQESVTEQDSKDSTYSLSSTLTLSKADYEKHKVYACEVTHQGLSSPVTKSFNRGEC",996 nM,
"TY24464 (antibody, human IgG1, kappa) heavy: not shown light: EVGSYTLCEPFATSVCRPSGGGPLGLAGGSDIQLTQSPSSLSASVGDRVTITCRASQSVRGRFLAWYQQKPGKAPKLLIYDASNRATGIPSRFSGSGSGTDFTLTISSLQPEDFATYYCQQSSSWPPTFGQGTKVEIKRTVAAPSVFIFPPSDEQLKSGTASVVCLLNNFYPREAKVQWKVDNALQSGNSQESVTEQDSKDSTYSLSSTLTLSKADYEKHKVYACEVTHQGLSSPVTKSFNRGEC",2140 nM,
"TY24148 (antibody, human IgG1, kappa) heavy: not shown light: EVGSYVLCAKFPFCITSGRSAGGGGTPLGLAGSGGSDIQLTQSPSSLSASVGDRVTITCRASQSVRGRFLAWYQQKPGKAPKLLIYDASNRATGIPSRFSGSGSGTDFTLTISSLQPEDFATYYCQQSSSWPPTFGQGTKVEIKRTVAAPSVFIFPPSDEQLKSGTASVVCLLNNFYPREAKVQWKVDNALQSGNSQESVTEQDSKDSTYSLSSTLTLSKADYEKHKVYACEVTHQGLSSPVTKSFNRGEC",150 nM,436
"TY24851 (antibody, IgG1, V domains shown, also called non-cleavable antibody TY24851) VH: EVQLVESGGGLVQPGGSLRLSCAASGYSISSGYHWSWIRQAPGKGLEWLARIDWDDDKYYSTSLKSRLTISRDNSKNTLYLQLNSLRAEDTAVYYCARSYVYFDYWGQGTLVTVSS VL: ETLCEPFATSVCRPGGGGSGGSGGGSDIQLTQSPSSLSASVGDRVTITCRASQSVRGRFLAWYQQKPGKAPKLLIYDASNRATGIPSRFSGSGSGTDFTLTISSLQPEDFATYYCQQSSSWPPTFGQGTKVEIKR",25.8 nM,
"TY24841 (antibody, V domains shown) VH: EVQLVESGGGLVQPGGSLRLSCAASGYSISSGYHWSWIRQAPGKGLEWLARIDWDDDKYYSTSLKSRLTISRDNSKNTLYLQLNSLRAEDTAVYYCARSYVYFDYWGQGTLVTVSS VL: ETLCEPFATSVCRPGGGGSGGSGGGSDIQLTQSPSSLSASVGDRVTITCRASQSVRGRFLAWYQQKPGKAPKLLIYDASNRATGIPSRFSGSGSGTDFTLTISSLQPEDFATYYCQQSSSWPPTFGQGTKVEIKR",34.9 nM,

# — patent publication US20260258131A1 (ADAGENE PTE, published 2026)
